The series concerns the target rA3GR8/E259A (Macaca mulatta (rhesus macaque), UniProt M1GSK9 1-138+=AEAG+147-383, E259A;internal_change). Nature of the series: EMSA. Background: Mobility shift assays separate free from complexed probe on a gel.

In turn, TTTTAATTTT (ssDNA) [AA-DNA 10 nt] yielded a Kd of 318 ± 64 nM.

TTTTGATTTT (ssDNA) [GA-DNA 10 nt] registered a Kd of 473 ± 95 nM.

The Kd is the constant that tells how readily two partners part at equilibrium.
